This is an account of results in patent publication US20200109196A1 (MOGAM INSTITUTE FOR BIOMEDICAL RESEARCH, published 2020).

What is called EC50 (read off the curve) is the concentration giving half of the maximal effect.

The target of test [1] is T1, recombinant human CEACAM-3/CD66d protein (Sino Biological; Cat. No. 11933-H08H) (human, UniProt P40198 35-155).
T1 construct: Bought protein; also called HCCM3
T1 sequence (looked up): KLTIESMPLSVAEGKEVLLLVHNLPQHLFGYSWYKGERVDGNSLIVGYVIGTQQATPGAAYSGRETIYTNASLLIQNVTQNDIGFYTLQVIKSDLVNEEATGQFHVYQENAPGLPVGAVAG
Briefly: ELISA on coated antigen (0.25 µg/ml), HRP anti-human IgG Fc, OD450. The text has this: All of the recombinant human CEACAM-1/CD66a protein (R&D systems; Cat No. 2244-CM, HCCM1), recombinant human CEACAM-5/CD66e protein (R&D systems; Cat. No. 4128-CM, HCCM5), recombinant human CEACAM-6/CD66c protein (R&D systems; Cat. No. 3934-CM, HCCM6), recombinant human CEACAM-3/CD66d protein (Sino Biological; Cat. No. 11933-H08H, HCCM3), human B7-H5/Gi24/VISTA protein (Sino Biological; Cat. No. 13482-H08H, HVISTA), recombinant human CEACAM-1/CD66a protein Bulk (R&D systems; Cat. No. 2244-CM, HCCM1 (bulk)), recombinant human CEACAM1-N domain-Kappa protein (Mogam, in-house production, HCCM1-N domain-kappa), and BSA protein (2.5 μg each) were dissolved in 10 ml of PBS, respectively, and dispensed into a 96-well plate at 100 μl/well, which was incubated at 4° C. overnight. Thereafter, each well was treated with 300 μl of 1% (v/v) bovine serum albumin, and incubated at 37° C. for 1 hour.
The diluted antibodies were dispensed into each well coated with each protein at 100 μl/well, and incubated at 37° C. for 1 hour. Then, each well was washed 3 times with a washing buffer prepared by diluting 10 μl of Tween 20 (Sigma-Aldrich; Cat. No. P9146) in 990 μl of PBS. Thereafter, 2 μl of HRP-conjugated human anti-IgG-Fc antibody (anti-human IgG Fc, Sigma Cat. No. A0170) was diluted in 10 ml of PBS, added to the wells at 100 μl/well, and incubated for 1 hour.
After completion of the reaction, the wells were washed three times with the washing buffer, and 100 μl of TMB solution was added to each well to induce color development. Then, 100 μl of 2 M H₂SO₄ was added to each well to stop the reaction, and the absorbance was measured at a wavelength of 450 nm.
Background: In an ELISA, binding on a coated surface is turned into a signal by an enzyme label.

Test [2] concerns the target T2, recombinant human CEACAM-1/CD66a protein (R&D systems; Cat. No. 2244-CM) (human, UniProt P13688 35-428).
T2 construct: Bought protein; captured on anti-His (His1K) biosensors in the Octet assay, so it carries a His tag; also called HCCM1; recombinant CEACAM-1/CD66a protein
T2 sequence (looked up): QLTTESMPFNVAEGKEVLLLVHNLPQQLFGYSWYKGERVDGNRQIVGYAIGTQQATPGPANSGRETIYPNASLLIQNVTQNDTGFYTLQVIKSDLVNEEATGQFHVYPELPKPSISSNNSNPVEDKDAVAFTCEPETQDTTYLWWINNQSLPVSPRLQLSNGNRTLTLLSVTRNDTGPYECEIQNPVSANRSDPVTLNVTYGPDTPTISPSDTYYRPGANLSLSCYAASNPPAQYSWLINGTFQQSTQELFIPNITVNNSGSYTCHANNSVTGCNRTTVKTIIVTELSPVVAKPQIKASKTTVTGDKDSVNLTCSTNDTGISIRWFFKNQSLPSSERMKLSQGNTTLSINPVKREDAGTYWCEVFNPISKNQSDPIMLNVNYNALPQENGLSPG
Briefly: ELISA on coated recombinant CEACAM-1/CD66a (0.25 µg/ml), HRP anti-human IgG, OD450. As for the experimental part: Also, 2.5 μg of the recombinant CEACAM-1/CD66a protein (R&D systems; Cat. No. 2244-CM) was dissolved in 10 ml of PBS, and dispensed into 96-well plate (Nunc; Cat. No. 467679) at 100 μl/well and incubated overnight at 4° C. Thereafter, 300 μl of 1% (v/v) bovine serum albumin was added to each well, which was incubated at 37° C. for 1 hour.
Each of the diluted antibodies was subjected to serial dilutions in PBS at a 1:1 volume ratio for 6 times. Each of the antibodies diluted to 7 concentrations was dispensed into each well at 100 μl/well, which was incubated at 37° C. for 1 hour. Then, each well was washed 3 times with a washing buffer prepared by diluting 10 μl of Tween 20 (Sigma-Aldrich; Cat. No. P9146) in 990 μl of PBS. Thereafter, 2 μl of human IgG conjugated with HRP was diluted in 10 ml of PBS, which was then dispensed into each well at 100 μl/well and incubated for 1 hour.

Positions count from the first letter of the chain named.

B1: C15 (antibody, human IgG4 S228P, lambda, V domains shown)
VH: EVQLLESGGGLVQPGGSLRLSCAASGFTFSSYSMSWVRQAPGKGLEWVSSISPNGGNKYYADSVKGRFTISRDNSKNTLYLQMNSLGAEDTAVYYCAKDPYNIYQPLFDYWGQGTLVTVSS
VL: QSVLTQPLSASGTPGQRVTISCSGSSSNIGNNYVNWYQQLPGTAPKLLIYANSNRPSGVPDRFSGSKSGTSASLAISGLRSEEEADYYCGTWDASLSAYVFGGGTKLTVLG
In the case of B1, the binding result in test [1] is on record as “no binding (tested: 3 µg/ml (single concentration))”; in test [2], “binds”.

B2: C18 (antibody, human IgG4 S228P, lambda, V domains shown)
VH: EVQLLESGGGLVQPGGSLRLSCAASGFTFSNYDMSWVRQAPGKGLEWVSGISHSSGSKYYADSVKGRFTISRDNSKNTLYLQMNSLRAEDTAVYYCARDPLPCLIPKCSYYYAMDVWGQGTLVTVSS
VL: QSVLTQPPSAPGTPGQRVTISCSGSSSNIGSNAVTWYQQLPGTAPKLLIYADSHRPSGVPDRFSGSKSGTSASLAISGLRSEDEADYYCGSWDDSLNAYVFGGGTKLTVLG
B2: the binding result in test [1] is “no binding (tested: 3 µg/ml (single concentration))”.

B3: C25 (antibody, human IgG4 S228P, lambda, V domains shown)
VH: EVQLLESGGGLVQPGGSLRLSCAASGFTFSNYAMSWVRQAPGKGLEWVSVISHGGGSIYYADSVKGRLTISRDNSKNTLYLQMNSLRAEDTAVYYCARDPTKGYAPTFDYWGQGTLVTVSS
VL: B1 VL with L8P, N35S, N52D, N54K, E83D, T91A, S97N, A98G
notes: Made in ExpiHEK293F cells, protein A purified. huIgG4 is the isotype control and anti-huIgG4 the detection reagent; the isotype is not otherwise stated; also called anti-CEACAM1 antibody C25
Consider B3, for which the “EC50 (read off the curve)” value in test [2] was ~0.2 µg/mL.

B4: C26 (antibody, human IgG4 S228P, lambda, V domains shown)
VH: EVQLLESGGGLVQPGGSLRLSCAASGFTFSGYDMSWVRQAPGKGLEWVSWISYGGGSIYYADSVKGRFTISRDNSKNTLYLQMNSLRAEDTAVYYCAKDRLPQKAVRHSYANGMDVWGQGTLVTVSS
VL: B2 VL with P11S, S31N, A33Y, S91A, D94Y, N97S, A98G
Turning to B4, the “EC50 (read off the curve)” value in test [2] was ~0.3 µg/mL.

B5: C17 (antibody, human IgG4 S228P, lambda, V domains shown)
VH: EVQLLESGGGLVQPGGSLRLSCAASGFTFSDYSMSWVRQAPGKGLEWVSVIYPDDGNTYYADSVKGRFTISRDNSKNTLYLQMNSLRAEDTAVYYCARGSIWWLSLIPSSYNAMDVWGQGTLVAVSS
VL: B1 VL with L8P, Y33A, N54H, E83D, T91A, S97N, A98G
In the case of B5, the binding result in test [1] is on record as “no binding (tested: 3 µg/ml (single concentration))”; in test [2], “binds”.
